Reference: article PMC6104973

Tests used:
[1] = molecular target: CD47 (Homo sapiens) (UniProt Q08722); settings: cited from earlier work
[2] = molecular target: ALX148 (human); assay: SPR; hFcRn flowed (0-5000 nM) over ALX proteins captured on a GLC chip with immobilised human CD47 ECD; 25°C; PBS pH 5.8, 0.01% Tween-20; equilibrium analysis; apparent

Chain of UniProt Q08722 (Q08722 19-323): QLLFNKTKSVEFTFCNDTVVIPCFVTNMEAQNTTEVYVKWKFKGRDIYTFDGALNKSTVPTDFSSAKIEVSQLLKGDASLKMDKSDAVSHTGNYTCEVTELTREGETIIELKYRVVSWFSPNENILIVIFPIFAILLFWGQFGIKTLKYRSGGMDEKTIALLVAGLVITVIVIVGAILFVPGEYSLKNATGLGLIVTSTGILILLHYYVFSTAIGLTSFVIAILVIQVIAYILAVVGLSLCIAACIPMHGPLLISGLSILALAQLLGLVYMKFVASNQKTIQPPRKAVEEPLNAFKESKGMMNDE

| Kd [2] [µM] | Substance | Kd [1] [µM] |
| --- | --- | --- |
| – | SIRPα (from UniProt P78324) | 1 |
| 0.58 | human neonatal Fc receptor (FcRn) (from UniProt P55899 24-297) | – |
